These results are taken from the DeepSol protein solubility set.

A short description of this data set: soluble on expression in E. coli; label from the status in PepcDB or PDB records.
Take “MGSDKIHHHHHHMFRPKLLFTSLAALALGACSPQDPQAVTSAAIANQVILPTYSRWVEADRTLAASALAYCEGKESLDKARADFLNAQKAWAELQPLLVGPLAEGNRAWQVQFWPDKKNLVGRQVEQLVNGDKPVDAEALGKSSVVVRGLSAYEYILFDSKPDIATAEQKARYCPLLVAIGAHQKALAEEILKGWNSTDGMLSQMTKFPNQRYADSHEAIADLLRAQVTALDTLKKKLGAPMGRQSKGIPQPLQAEAWRSHNSMNSLQASLKAAEAVWVGVDNQGLRGLLPSDQKALADKIDAAYATSLKLLADNQKTLGELLADDAGQQTLNQIYDSLNVVHRLHEGDLAKALNIQLGFNANDGD”: the “soluble on expression in E. coli” value is on record as “not soluble”. As for “MGSDKIHHHHHHAKIRAKNADSYPFMYKNYPFLRPWVDSLNQAHALRDTFVLNPEGIRLHAYYIAAPQPTKKTAVIVHGYTDNAIRMFMIGYLYNHDLQYNVLLPDLQHQGESGGPAIQMGWKDRLDVMQWMHIANQIYGDSTQMVVHGISMGGATTMMVSGEAQPYFVKCFVEDCGYTSVWDEFSHELKSSFHLPSFPLMNTTSWLCQKKYGWNFEEASSLNQVKKSHLPMFFIHGDKDTYVPTWMVYPLYEAKSAPKQLWIVPGAAHAVSYKENKEEYTRKVKEFTDRYIH”, the entry is “not soluble”; as for “MGSDKIHHHHHHMFVGMDFGTTNSAVALAGADGSVEVLNFAAATGAASTLRSVLAFENARRDAQRRILPLAGHEAIEAYLHGDGDCRFLQSFKSYLTSRSFTSTAIYGAPYSLEELVALIIAQLRRTAEAAGAKVERVVAGRPVRFVAEGGEEEDAYATGRLVEAFAKAGITDVVFEYEPIAAAYYYESTLTRDQTVLVADFGGGTSDFCLIRLGPGRAGLARPEDAIIGTAGVGIAGDAFDRRIVEHGLSGHFGKYTTYVSDGKVLPMPAWVYAKLERWHHVAFLNTPSTMRLLRDLLRQVEHPDQVEQLLALIEHNLGYHLYRAVEQAKRDLSSADETVLRFDHDPVVVERRVTRAEFESWIGKELSAIESCVDGLLDGTGTALAQVDRVFLTGGSSLVPAVRAIFANRFGEDRLSAGGEFISVATGLAQRAREMG”, “not soluble”; as for “MEAEVDKLELMFQKAESDLDYIQYRLEYEIKTNHPDSASEKNPVTLLKELSVIKSRYQTLYARFKPVAVEQKESKSRICATVKKTMNMIQKLQKQTDLELSPLTKEEKTAAEQFKFHMPDL”, “not soluble”. As for “MGSDKIHHHHHHMKLSMPRFDQAPVLVVGDVMLDRYWHGGTSRISPEAPVPVVKVDQIEDRPGGAANVALNIAALGAPASLVGVTGDDEAAESLTNSLKAAGVVARFQRIADQPTIVKLRVMSRHQQLLRIDFEEPFNTDPLALSAEVYSLLDGIKVLVLSDYGKGALKNHQALIQAARKRGIPVLADPKGKDFAIYRGASLITPNLSEFEAIVGHCEDEAQLVTKGAQLMQELDLGALLVTRGEHGMTLLRPDQQALHLPARAREVFDVTGAGDTVISTLAAAIAAGEELPHAVALANLAAGIVVGKLGTAAISAPELRRAIQREEGSERGVLGLEQLLLAVDDARAHKEKIVFTNGCFDILHAGHVTYLEQARAQGDRLIVAVNDDASVSRLKGPGRPINSVDRRMAVLAGLGAVDWVISFPEGTPENLLTHVKPDVLVKGGDYGIDQVVGADIVQAYGGEVRVLGLVENSSTTAIVEKIRGQG”, the entry is “not soluble”. As for “MSLKTGRSNIIAFIVPDQNPFFTEVLTEISHECQKHHLHVAVASSEENEDKQQDLIETFVSQNVSAIILVPVKSKFQMKREWLKIPIMTLDRELESTSLPSITVDNEEAAYIATKRVLESTCKEVGLLLANPNISTTIGRKNGYNKAISEFDLNVNPSLIHYSDQQLGTNAQIYSGYEATKTLLSKGIKGIVATNHLLLLGALQAIKESEKEIKKDVIIVGFDDSYWNEIYTPKLTVISQPVKEMGQVAAKMIYKLIKGKDVTSIKLSTKLIIRESCSFNEGHHHHHH”, the entry is “soluble”. Consider “MRPLSLKGHERALTRVRFNREGDLTFSCAKDKKPCVWYTENGERIGSYDGHNGAVWDIDVSWDTTKCVTASGDLTVKIWDAELGNCLYTINHQTPMKSCGFSYSGNLVCFTTQKMTKNLSTFQVRDLRDSSQMVEGGESFFYSQFDVNATTALFTQMDDLVTIGFESGLLQQYDLRNPDTPIHTNESVHRYSVQDLQLSPRGDFLISASRDKTAALLDVNDLKKLKQYKSERPVNSACISPNRDHICLGGGEDAMQVTQTSVSAGHFEAKIYHMVFEEEFARFKGHFGPINTMAWHPSGTIIATGGEDGYIRIQEFDEDYLGFTYDF”, for which the “soluble on expression in E. coli” value is recorded as “not soluble”.
